Measurements reported in a protein production outcome set (Wang et al. 2014).

Assay: label from the status in PepcDB records
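Note: failed if final PepcDB status was selected cloned or expressed and not failed if soluble or beyond.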

Sequence	protein production
MDELLEKAKKVREAWDVLRNATTREKNKAIKKIAEKLDERRKEILEANRIDVEKARERGVKESLVDRLALNDKRIDEMIKACETVIGLKDPVGEVIDSWVREDGLRIARVRVPIGPIGIIYESRPNVTVETTILALKSGNTILLRGGSDALNSNKAIVSAIREALKETEIPESSVEFIENTDRSLVLEMIRLREYLSLVIPRGGYGLISFVRDNATVPVLETGVGNCHIFVDESADLKKAVPVIINAKTQRPGTCNAAEKLLVHEKIAKEFLPVIVEELRKHGVEVRGCEKTREIVPDVVPATEDDWPTEYLDLIIAIKVVKNVDEAIEHIKKYSTGHSESILTENYSNAKKFVSEIDAAAVYVNASTRFTDGGQFGFGAEIGISTQRFHARGPVGLRELTTYKFVVLGEYHVRE	not failed
MDERNVSKPAMRGHKLVLNNRTASLVTGVKDVLSFDLNEVLLETEQGMLMVKGTDLHVNRLSLEKGEVDLSGNIDSIAYSDVHAEQKQGENLFARLFR	failed
MDESAALRAFQDALRTQRPEFGQFFLARLLGLDISYPDGQCLIVFEPQDFLFNPQGSLHGGIIATVMDISMGHLLNHVQGAGLTLEMKTQYLKAVRQGTVYCRGEFLQRGRSVSFLKSTLTDAQGEPLAMATSTWKALSPLEHHHHHH	not failed
MDETVAEFIKRTILKIPMNELTTILKAWDFLSENQLQTVNFRQRKESVVQHLIHLCEEKRASISDAALLDIIYMQFHQHQKVWDVFQMSKGPGEDVDLFDMKQFKNSFKKILQRALKNVTVSFRETEENAVWIRIAWGTQYTKPNQYKPTYVVYYSQTPYAFTSSSMLRRNTPLLGQELEATGKIYLRQEEIILDITEMKKACN	failed
MDFDLRWLFIAASLGLCAWAGWQFVHRLARARLLGDVPTSRIRSAAQGFVELYGVLEEGPEGPLQAPLTGKPCLWWRYRIEVEEKRSGREKAWRTVDKGASESPFSLRDATDACLVDPRGAEVRPLTQQRWEAFREAPIDTLRLLESFGTLVGGERLYRYTEERLHAGEPLYALGEFRSSGGGRQGLDAERAQGAVIREWKGDFHGLLARFDSDGNGELDEREWNRVRLAARLEAEDRHRASSAAPTRHRLGKPGEAHPFILSSQGEDDLAVQLRRQAAGAALLCLGSALLAGWLFSRLF	failed
MDFDLWWLLAIPLVFGLGWVAARLDARQLLTEQASLPRSYFKGLNFLLNEQPDKAIDAFIEVARLDPETTELHFALGSLFRRRGETERAIRVHQNLVNRPDLPANERDHALYELGQDFLRAGLLDRAEESLRMLMEGVFAEPAKRVLLELYEVEKEWRKAIDAARELQTLQGQDYSVQIAQFCCELAQESLQRKDVSAAVEWLERALQENPKNVRATIQLGDVALGKGDTEGAIKRWRSIEQQNPAFLPLVAERLMKAYAQLGRAAEGLAWLRSKMDARLGPELLDVVYRYELDVHGIDDAVALMREQIRRQPSLMALTRLVEAEATRASEAVSHEAAAVAAPISDSALADPVEAGSNADIQRAQDLGAIRDLLQSRTRNLARYTCQECGFRARLFYWQCPGCNRWETYAPRRTEALGGSGGASM	failed
MDFDTIQIDYEKEETVMIGRAADKIFTRVFIFLIMTVYFWIYTVAGLVVLGIGPAFRTVTEMHMDKQWDYRLYHFKEGWQRFKRHFWQMNLHTWLFLGVGAVLAYNLYLSLSIHTLWIIFIQFIIVFALILDFSLAIFTVMLRSRYDVAFKDAIKLAIVQFFSNFTQLLTFIIGTIVLIVISLKWPGMILFLSPGIYMVGADRLSRRWYDKIDKMLGAV	failed
MDFECQFVCELKELAPVPALLIRTQTTMSELGSLFEAGYHDILQLLAGQGKSPSGPPFARYFGMSAGTFEVEFGFPVEGGVEGSGRVVTGLTPSGKAASSLYIGPYGEIEAVYDALMKWVDDNGFDLSGEAYEIYLDNPLEHHHHHH	failed
MDFKTVMQELEALGKERTKKIYISNGAHEPVFGVATGAMKPIAKKIKLNQELAEELYATGNYDAMYFAGIIADPKAMSESDFDRWIDGAYFYMLSDYVVAVTLSESNIAQDVADKWIASGDELKMSAGWSCYCWLLGNRKDNAFSESKISDMLEMVKDTIHHSPERTKSAMNNFLNTVAISYVPLHEKAVEIAKEVGIVEVKRDNKKSSLLNASESIQKELDRGRLGFKRKYVRC	not failed
MDFLGILCLLILATTLAGHFAHRAGIPAVIGEILVGVILGPALLNWVHLTTLVQTFSDIGVVVLMFIGGLESNLALLRKYLRPAIIVAIIGVIFPVVIMGLASRFFQFSWFESLFIGVIFSATSVSISVEVLKEFKVLDTKEGATILGAAVADDIIGVILLSIMIAMMGGQSGVAQTNLGIVLLEQVGFFIGVFIVIKWVAPYLMRLSDHLLMAASPTIMAIIICLALAWLAELVGLSGAIGAFFAGVAIAQTDYQHVVDVSIEPVGYTTFIPLFFVSVGLNMTFKGVWQSLPFIVVMTVLGVLTKLWGCGLGAKLNGFSRHSNYLVGAGMISRGEMALITAQIGFSAHLLSNDYYSDIILVIIVVTMIAPFVLKNAIHRAGQVTATHSIIEEH	failed
MDFLVAHFNLLRGLHILAVIAFMAGMLYLPRLFVYHTKATPGSQMDETFKVMERRLLRGIINPASIATAVFGLGLILADAQIRGWDFLLQPWMIAKLVALVGLYGFHGFLSASRKKFERGENVRSEKFWRMVNEIPFVLAIVIVMSVTTKYLNH	failed
MDFNDSAQAIILNVGGEKNINSLIHCSTRLRFTLNDFAKADLEKLKTVDGVLGAVIAGGQCQVIIGNDVVEMFDAVQALLGNSTQQNTARGPKQSWGKVVLDFIIGVFQPLVPAIAGGGILKAVLMLLAMFGWISDKSQTYQILNLVGGAPLYLLPILVAITTAQKLKVNPLVAVSTVGVLILPDLVAMLTKGTTLFGLHVTNVTYSSQVFPAILCVLFYALMERFFTKYSPKPIRIFFVPMMSMLITAPITLLFLGPLGYVVGEGFVSVILFLNTHLGWVATALLAGVLPFMVATGMHKPMIPYVVSTFSTVGKESLYLPASLAHNISESGTCFAITLRTKDTKLRAVALSAGISALFGITEPALYGVTLQHKRALISVITGGVIGGAYVGIAGLSGFTIVGPGLASLPMFVDKSNPANLIHALIGFGISFVVSFVIGLIIWKNDEEISSASDTGEATTTVVAEDLMAPVAGKILSLADVPDDVFSQGLIGQGIAVEPSEGSLIAPTDGTIEMVYETKHALGMRTDNGAELLFHIGLDTVQLNGKYFESHVQVGQHVQAGELLETFDVAKIKAAGYNPITMMVVTNQDSYTVAVDESNETLDNQSVMNIAKLGV	failed
MDFNPIDLILHLDTYLAMLVSNYGVWIYAILFLVIFCETGLVVTPFLPGDSLLFIAGAICATGGMDPWLLGGLLMVAAITGDSTNYVIGRTLGKRLFSNPDSKVFRRDYLDRTHEFYERHGGKTVTLARFLPIVRTFAPFVAGMAKMHYPRFVMFSVVGTVAWVGGLVTLGYFFGNVPFIKKNLSLLVIGIILLSLLPMILGFIRHRLQASAAKQAKAQSD	failed
MDFPCLWLGLLLPLVAALDFNYHRQEGMEAFLKTVAQNYSSVTHLHSIGKSVKGRNLWVLVVGRFPKEHRIGIPEFKYVANMHGDETVGRELLLHLIDYLVTSDGKDPEITNLINSTRIHIMPSMNPDGFEAVKKPDCYYSIGRENYNQYDLNRNFPDAFEYNNVSRQPETVAVMKWLKTETFVLSANLHGGALVASYPFDNGVQATGALYSRSLTPDDDVFQYLAHTYASRNPNMKKGDECKNKMNFPNGVTNGYSWYPLQGGMQDYNYIWAQCFEITLELSCCKYPREEKLPSFWNNNKASLIEYIKQVHLGVKGQVFDQNGNPLPNVIVEVQDRKHICPYRTNKYGEYYLLLLPGSYIINVTVPGHDPHITKVIIPEKSQNFSALKKDILLPFQGQLDSIPVSNPSCPMIPLYRNLPDHSAATKPSLFLFLVSLLHIFFK	not failed
MDGEILRDPTRRFVLQSGAAVGGGLLLSFTMSSEGQAAGDTKVNAYVRIASDGKVTIASKVPEVGQGIKTALPMLIAEELDVDWSAVTVEQAIADTKIYGRQVAGGSMATTLEYDGLRRVGATVRALLIAAAAARWNVPADSLKTEPGFVVDAAGKRRASYGELAQAAAALTPPDPKSLTLKDPKAFRIIGKSHKSQNLDAIVTGQPTYGIDVRLPGMLFAAFAKAPVYGAKVASVDLALAKAVKGVRDAFIIEGGTNLQGLLPGVAVVADSWWAARKGREALQIQWAEHPTASQSTVGFAAKAAELAAAPPHRNLHNDGDVEAALKGAAKTVSAAYSYPFIAHAALEPQNCTAHVKDGKVEIWAPTQNPESGRALVARALNVDPSAITIHLIRGGGGFGRRLMNDYMVEAAAIAAKVNAPVQLIWTREDDMQHDFYRPGGWHNLTAGLDAKGGLTAWKNHFITFGEGETFNTAAAMNATQFPCRAVANYRHDVSVMPLGFPTGFLRAPGNNAFGFVIQSFTDELALAAGKDPVAFRRELLGEPRLLGEPGKGDSFHTGRMRGVLDLVAEMSGWGRKVPKGTGLGVACHYSHLGYVAVVMQVTVKDGAVKVDKVWAAADVGRQIVNPSGADQQMQGSILDAIGSTLYQSITFENGAATNSNFGDFPLLRMADAPPVEVRYKLSDNNPTGLGEPAYPPAPAALCNAIFAATGKRIRSLPIGDQLA	failed
MDGHSKNHCSPVGRYFPMPLDRRFLPGWLAFLALLAICVFPLMAKAAGVPALVGRVNDYAGMISPQARSIIDQKLKALEAEDGTQVAVLTVPSLDGQPIEEFSIKVAEAWKIGQKGRDNGILFIVSKNDRAMRIEVGYGLEGRLTDLQAGRITRDVIKPAFKSGDYDKGFIDGVDAIVASVKGEYKAPKRKNDDGAPSPFLIFIILFVLFVASRFMRFFGGGGGPFGFGGPGGGFFPGGGFGGGGGSSDDGGFSGGGGDFGGGGASDNW	failed
MDGRRMVQGLLTASLLTSIGGDLEVLASRMDLQFQRPVYTGETLVCELTVVSADPHTDGGVALVGDVAVRRVNRDDNSGQADTAAPLEHHHHHH	failed
MDHAAVLALFDRDMREGARPDGPGARIERVPGVVRQVASEHGWNGVVWSGLDEASADAAIAEQQRYFAGLGREFEWKLYGHDLPEDLGRRLRAAGFTAAPEETLMVAEVADLTLDVEPPDGVRIVPVTDRAGVDLVADVHEKAFGTDSTRMRHQLLAQVTDDPDAVVAVVALAGDEPVSAARMELVPGTRFAGLWGGGTVEGERGRGIYRALVAHRAKVAADRGYRYVQVDATSQSRPVLARLGFEPLTTTTPYVSP	not failed
MDHDKTGCQSPPEGPKLCTNNCGFFGSAATMNMCSKCHKDMLFQQEQGAKFASAVSGTSSSSNIIKETFTAALVDIETKSVEPMTVSVQPSSVQVVAEVVAPEEAAKPKGPSRCTTCNKRVGLTGFKCRCGSLFCGTHRYADVHDCSFNYHAAAQEAIAKANPVVKAEKLDKI	failed
MDIDLSAFHFLRPWWLLAVPLAALLWWARRGERGAPGRDLRIAPALLPYLVLRTPGSRGPRPIDALALFLALGGVAAAGPAWQRDEPAYLDNVAPLIVALDLSASMDGADVPPTRLEAARRVLRDLAARRAAARTGLIAYAGSSHLVLPPTDDAALLDLFAQALATGLIERPGRDADGAIALAAQALAAERAGGTLLILTDGADRARMDAVRRQAQAARDMQVLVMAVGVNGIDTQALQELARAAGAALGSLTGGPDDQDWIALHAQAHFRAVQDAQSGPVHWKDAGYWLCWPLALLALLAVRRGWSVAWSAGVLVVAMAGMPQPARADALADAFLTADQQGRRAFEHGRYDAAARHFHDPNWKGRAAYQAGDYRAALAAFSTLPSAEGYFYVGNTQTRLHRYDAALAAYDRALALRPGWQPAVVNRGIVARLLAAMAQTQQDQPAEPPDRTIADRSAQAGKMSQAPVAQAGSEEAWLRNLTLSPARFLRSKFAVEDAAAGTRP	failed
MDIEDLQTFVAVADAGGVSAAARRLGISKSIVSRRLLRVEAELGVQLLARTTRGAALTEAGITFRDHAARASAEIDTAKETILPTGELRGRLRVAMPLTFGPTHFAPVLADMARQHPQLHIHTSYSDRFVDLIAEGFDCAIRGAYLQDSNLIAKRVGPIHGKLVASPDYIKAHGSPGTLDELVTHQALMQGTEAWQFMDGDKIVTVQPQGRFKADSATALAAAAAAGLGIAWLPDCITYGYVASGALVPIMTRYPVPPGAAYVVRPPGQHPTRKVRALTEMLTEYFKRNPDVWGLDR	failed
